Experimental data: article PMC8204385 (Biophysical Journal, 2021)
Several values for one entry are separate records, joined by “and”; a condition that tells them apart may be missing. Identical values can stand only once.

Molecular target: T1, human SHP-1 (Homo sapiens, UniProt P29350)
T1 construct: 6xHis (N); made in house; host or cells: Escherichia coli BL21-CodonPlus (DE3)-RIPL
Experiment: SPR-based assay for tethered SHP-1 reactions on immobilised phosphopeptides, extended MPDPDE model fit
Type: binding
Details: 37°C; vertical intercept of regression of L^2 vs number of PEG linkers, all data except PEG0

T1 sequence (P29350 whole entry): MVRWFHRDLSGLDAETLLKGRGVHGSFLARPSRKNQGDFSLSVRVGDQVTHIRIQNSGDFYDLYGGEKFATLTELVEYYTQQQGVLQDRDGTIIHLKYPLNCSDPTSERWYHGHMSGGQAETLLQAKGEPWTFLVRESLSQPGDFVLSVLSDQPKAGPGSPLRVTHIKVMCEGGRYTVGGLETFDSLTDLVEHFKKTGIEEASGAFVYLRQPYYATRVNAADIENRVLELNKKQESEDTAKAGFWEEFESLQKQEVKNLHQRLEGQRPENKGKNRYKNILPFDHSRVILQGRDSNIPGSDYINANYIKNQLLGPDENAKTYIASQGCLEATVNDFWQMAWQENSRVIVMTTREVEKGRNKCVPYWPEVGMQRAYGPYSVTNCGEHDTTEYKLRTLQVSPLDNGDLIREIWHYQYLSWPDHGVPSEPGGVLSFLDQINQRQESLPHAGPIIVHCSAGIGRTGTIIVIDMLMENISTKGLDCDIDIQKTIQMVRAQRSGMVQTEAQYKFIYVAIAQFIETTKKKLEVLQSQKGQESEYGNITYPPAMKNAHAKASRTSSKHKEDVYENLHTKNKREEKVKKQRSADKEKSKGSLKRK

## SHP-1: Human tyrosine phosphatase SHP-1 with an N-terminal 6× His tag produced in Escherichia coli
  molecular reach of SHP-1 (LSHP-1): 13.0 nm and 13.0 ± 0.8 nm
